# Assay results taken from the RNAGym collection of RNA variant scans (doi:10.1073/pnas.2313332121).
# B1: TPR t1 (parent)
# chain: GACCAAUCUGCCCUCAGAGCUCGAGAACAUCUUCGGAUGCAGAGGAGGCAGGCUUCGGUGGCGCGAUAGCGCCAACGUCCUCAACCUCCAAUGCAUCCCACCACAUGAUGAUGCCUGAAGAGCCUUGGUUUUUUG
# Variants of: B1
# Assay: polymerase ribozyme fitness, log enrichment relative to wild type (log ratio); higher = more active; in vitro selection for triplet polymerase activity
# Procedure, shortened: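 For each subunit of a heterodimeric triplet polymerase ribozyme, a mutant library was built by PCR and transcribed, then taken through a single in vitro selection round in triplicate. Selection involved annealing to a biotinylated primer, the partner subunit and triplets, incubation frozen at −7 °C, gel excision of extended constructs, capture on streptavidin beads and RT-PCR. Genotypes were retained after Illumina sequencing of inputs and outputs only with ≥10 input reads and ≥1 read in each output. Fitness is defined as the logarithm of a genotype's enrichment relative to wild-type enrichment, using inverse-variance-weighted averages across replicates, with the logarithm taken to base 2.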
row,Variant,polymerase ribozyme fitness (log ratio)
1,GACCAAUCUGCCCUCAGAGCUGGAGAACAUCUUCGGAUGCAGAGGAGGCAGGCUUCGGUGGCGCGAUAACGCCAACGUCCUCAACCUCCAAUGCAUCCCACCACAUGAUGAUGCCUGAAGAGCCUUGGUUUUUUG [C22G G69A],-3.64
2,GACCAAUGUGCCCUCAGAGCUCGAGAACAUCUUCGUAUGCAGAGGAGGCAGGCCUCGGUGGCGCGAUAGCGCCAACGUCCUCAACCUCCACUGCAUCCCACCACAUGAUGAUGCCUGAAGAGCAUUGGUUUUUUG [C8G G36U U54C A91C C124A],-0.94
3,GGCCAAUGUGCCCUCAGAGCUCGAGAACAUCUUCGGAUGCAGAGGAGGCAGGCUUCGGUGGCGCGAUAGCGCCAACGUCCUCAACCUCCAAUGCAUCCCACCACAUGAUGAUGCCUGAAGUGCCUUGGGUUUUUG [A2G C8G A121U U129G],0.138
4,GACCAAUCUGCCCUCAGAGCUCGAGAACAUCUUCGGAUGCAGAGGAGGCUGGCUUCGGUGGCGCGAUAGCGCCAACGUCCUCAACCUCCAAUGCAUCCCCCCACAUGAUGGUGCCUGAAGAGCCUUGGUUUUUUG [A50U A100C A111G],-2.38
5,GACCAAUCUGCCCUCAGAGCACGAGAACAUCUUCGGAUGCAGAAGAGGCAGGCUUCGGUGGCGCGAUAGCGCCAACGUCCUCAACCUCCAAUGCAUCCCACCACAUGAUGAUGCCUGAAGAGCCUUGGUUUUUUG [U21A G44A],-1.07
6,GACAAAUCUGCCCUCAGAGCUCGAGAACAUCUUCGGAUGCAGAGGAGGCAGGCUUCGGUGGCGCGAUAGCGCCAACGUCCUCAACCUCCAAUGCAUCCCACCACAUGAUGAUGCCUGAAGAGCCUUAGUUUUUUG [C4A G127A],-1.82
7,GACCAAUCUGCCCUCAGAGCUCGAGAACAUCUUCGGAUGCAGAGGAGGCAGGCUUCGGUGGCGCGAUAGCGUCAACGUCCUCAACUUCCAAUGCAUCCCACCACAUGAUGAUGCCUAAAGAGCCUUGGUUUUUUG [C72U C86U G117A],-2.26
8,GACCAAUCUGCCCUCAGAGCUCGAGAACAUCUUCGGAUGCAGAGGAGGCAGGCUUGGGUGGCGCGAUAGCGCCAACGUCCUCAACCGCCAAUGCAUCCCCCCACAUGAUGAUGCCUGAAGAGCCUUGGUUUUUUG [C56G U87G A100C],-1.94
9,GACCAAUCUGCCCUCAGAGCUCGAGAACAUCUUCGGAUGCACAGGAGGCAGGCUUCGGUGGCGCGUUAGCGCCAACGUCCUCUACCUCCAAUGCAUCCCACCACAUGAUGAUGCCUGAAGAGCCUUGGUUUUUUG [G42C A66U A83U],-3.36
10,GAUCAACCUGCCCUCAGAGCUCGAGAACAUCUUCGGAUGCAGAGGAGGCAGGCUUCGGUGGCGCGAUAGCGCCAACGUCCUCAACAUCCAAUGCAUCCCACCACAUGAUGAUGCCUGAAGGGCCUUGGUUUUUUG [C3U U7C C86A A121G],2.02
11,GACCAAUCUGCCCUCAGAGCUCGAGAACAUCUUCGGAUGCAGAGAAGGCAGGCUUCGGUGGCGCGAUAGCGCCAACGUCCUCAACCUCCAAUGCAUCCCACCACAUGAUGAUGACUGAAGAGCCUUGGUUUUUUG [G45A C114A],-1.97
12,GACCAAUCUGCCCUCAGAGCUCGAGAACAUCUUCGGAUGCAGAGGAGGCAGGCUUCGGUGGCGCGAUAGCGCCAACGUCCUGAACCUCCAAUGCAUCCCACCACAUGAUGAGGCCUGAAGAGCCUUGGUUUUUUG [C82G U112G],-2.98
13,GACCAAUCUGCCCUCAGAGCUCGAGUACAUCUUCGGAUGCAGAGGAGGCAGGCUUCGGUGGCGCGAUAGCGACAACGUCCUCAACCUCCAAUGCAUCCCACCACAUGAUGAUGCCUGAAGAGCCUUGGUUUUUUG [A26U C72A],-2.97
14,GACCAAUCUGCCCUCAGAGCUCGAGAACAUCUUCGGAUGCAGAGGAGGCAGGCUUCGUUUGCGCGAUAGCGCCAACGUCUUCAACCACUAAUGCAUCCCACCACAUGAUGAUGCCUGAAGAGCCUUGGUUUUUUG [G58U G60U C80U U87A C89U],-3.57
15,GACCAAUCUGCCCUCAGGGCUCGAGAACAUCUUCGGAUGCAGAGGAGGCAGGCUUCGGUGGCGCGAUAGCGCCAACGUCCUCAACCUCAAAUGCAUCCCACCACAUGAUGAUGGCUGAAGAGCCUUGGUUUUAUG [A18G C89A C114G U133A],-6.53
16,GACCAAUCUGCCCUCAGAGCUCGAGAACAUCUUCGGAUGCAGAGGAGGCAGGCUUCGGUGGCGCGAUAGCGCCAACGUCCUCAAACUCCAAUGGAUCCCACCACAUGAUAAUGCCUGAAGAGCCUUGGUUUUUUG [C85A C94G G110A],-3.12
17,GACCAAUCUGGCCUCAGAGCUCGAGAACAUCUUCGGAUGCAGGGGAGGCAGGCUUCGGAGGCGUGAUAGCGCCAACGUCCUCAACCUCCAAUGCAUCCCACCACAUGAUGAUGCCUGAAGAGCCUUGGUUUUUUG [C11G A43G U59A C64U],-2.3
18,GACCAAUCUGACCUCAGAGCCCGAGAACAUCUUCGGAUGCAGAGGAGGCAGCCUUCGGUGGCGCGAUAGCGCCAACGUCCUCAACCUCCAAUGCAUCCCACCACAUGAUGAUGCCUGAAGCGCCUUGGUUUUUUG [C11A U21C G52C A121C],0.244
19,GACCAAGCUGCCCUCAGAGCUCGAGAACAUCUUCGGAUGCAGAGGAGGCAGGCUUCGGUGGCGCGAUAGCGCCAACGUCCUCAACCUCCAAUGCAUCCCAACACAUGAUGAUGCCUGAAGAGCCUUGGUUUUUUG [U7G C101A],-0.172
20,GACCAAUCUGCCCUCAGCGCUCGAGAACAUCUUCGGAUGCAGAGGAGGUAGGCUUCGGUGGCGCGAUAGCGGCAACGUCCUCAACCUCCAAUGCAUCCCACCACAUGAUGAUGCCUGAAGAGCCUUGGUUUUUUG [A18C C49U C72G],-3.75
21,GCCCAAUCUGCCGUCAGAGCUCGAGAACAUCUUCGGAUGCAGAGGAGGCAGGCUUCGGUGGCGCGAUAGCGCCAACGUCCUCAACCUCCAAUUCAUCCCACCACAUGAUGAUGCCUGAAUAGCCUUGGUUUUUUG [A2C C13G G93U G120U],-2.23

row,Variant,polymerase ribozyme fitness (log ratio)
1,GACCAAUCUGCCCUCUGAGCUCGAGAACAUCUUCGGAUGCAGAGGAGGAAUGCUGCGGUGGCGCGAUAGCGCCAACGUCCUCAACCUCCAAUGCAUCCCACCACAUGAUGAUGCCUGAAGAGCCUGGUUUUUUUG [A16U C49A G51U U55G U126G G128U],-5.16
2,GACCAAUCUGCCCUCAGAGCUCGAGAACAUCUUCGGAUGCAGAGGAGGCAGGCUUCGGUUGCGCGAUAGCGCCAACGUCCUCAACCUCCAAUGCAUCCCACCACAUGAUGAUGCCUGAAGGGCCUUGGUUUUUUG [G60U A121G],1.76
3,GACCAUUCUGCCCUCAGAGCUCGAGAACAUCUUCGGAUGCAGAGGAGGCAGGCUUCGGUGGCGCGAUAUCGCCAACGUCCUCAACCUCCAAUGCAUCCCACCACAUGAUGAUGCCUGAAGAGCCUUGGUUUUUUG [A6U G69U],0.777
4,GUCCAAUCGGCCCUCAGAGCUCGAGAACAUCUUCGGAUGCAGAGGAGGCAGGCUUCGGUGGCGCGAUAGCGCCAACGUCCUCAACCUCCAAUGCAUCCCACCACAUGAUGAUGCCUGAAGAGCCUUGGUUUUUUG [A2U U9G],-1.32
5,GACCAAUCUGCCCUCAGAGCUCGAGAACAUCUUCGGAUGCAGAGGAGGCAGGCUUAGGUGGCGCGAUAGCGCCAACGUCUUCAACCUCCAAUGCAUCCCACCACAUGAUGAUGCCUGAACAGGCUUGGUUUUUUG [C56A C80U G120C C123G],-0.961
6,GACCAAUCUGCCCUCAGAGCUCGAGAACAUCUUCGGAUGCAGAGGAGGCAGGGUUCGGUGGCGCGAUAGCGCCAACGUCCUCAACCUCCAAUGCAUUCCACCAAAUGAUGAUGCCUGGAGAGCCUUGGUUUUUUG [C53G C97U C104A A118G],-3.19
7,GACCAAUCUGCCCUCAGAGCUCGAGAACAUCUUCGGAUGCAGAGGAGGCAGGCUUCGGUGGCGCGAUAGCGCCAACGUCCUCAACCUCUAAUGCAUCCCACCACAUGAUGAUGCCUGAAGGGCCUUGGUUUUUUG [C89U A121G],-0.907
8,GACUAAUCUUCCCUCAGAGCUCGAGAACAUCUUCGGAUGCAGAGGAGGCAUGCUUCGGUGGCGCGAUAGCGCCAACGUGCUCAACCUCCAAUGCAUCCCACCACAUGAUGAUGCCUGAAGAGCCUUGGUUUUUUG [C4U G10U G51U C79G],-3.58
9,GACCAAUUUCCCAUCAGAGCUCGAGAACAUCUUAGGAUGUAGAGGAGGCAGGCUUCGGUGGCGCGAUAGCGCCAACGUCCUCAACCUCCAAUGCAUCGCACCCCAUGAUGAUGCCUGAAGAGCCUUGGUUUUUUG [C8U G10C C13A C34A C40U C98G A103C],-3.92
10,GACCAAUCUGCCCUCAGAGCUCGAGAACAUCUUCGGAUGCAGAGGAGGCAGGGUUCGGUGGCGCGAUAGCGCCAACGUCCUCAACCUCCAAUGCAUCCCACCACAUGAUGAAGCCUGAAGAGCCUUGGUUUUUUG [C53G U112A],0.666
11,GACCAAUCUGCCCUCAGAGCUCGAGAACAUCUUCGGAUGCAGAGGACGCAGGCUUCGGUGGCGCGAUAGCGCCAACGUCCUCAACCUCCAAUGCAUCCCACCACAUGAUGAUGCCUGAAGAGACUUGGUUUUUUG [G47C C123A],-0.0743
12,GACCAGUCUGCCCUCAGAGCUCGAGAACACCUUCGGAUGCAGAGGAGGCAGGCUUCGGUGGCGCGAUAGCGCUAACGUCCUCAACCUCCAAUGCAUCCCACCACAUGAUGAUGCCUGAAGAGCAUUGGUUUUUUG [A6G U30C C73U C124A],-1.64
13,GACCAAUCUGCCCUCAGAGCUCGAGAACAUCUUCGGAUACAGAGGAGGCAGGCUUCGGUGGAGCGAUAGCGCCAACGUCCUCAACCUCGAAUGCAUCCCAUCACAUGAUGAUGCCUGAAGAGCCUUGGUUUUUUG [G39A C62A C89G C101U],-5.16
14,GACCAAUGUGCCCUCAGAGCUCGAGAACAUCUUCGGAUGCAGACGAGGAAGGCUUCGGUGGCGCGAUAGCGCCAACGUCCUCAACCUCCAAUGCAUCCCACCACAUGAUGAUGCCUGAAGAGGCUUGGUUUUUUG [C8G G44C C49A C123G],0.185
15,GACCAAUCUGCCCUCAGAGCUCGAGAACAUCUUCGGAUGCAGAGGAGGCAGGCUUCGGUCGCGCGGUAGCGCCAACGUCCUAAACCUCCAAUGCAUCCCACCACAUGAUGAUGCCUGAAGAGCCUUGGUUUUUUG [G60C A66G C82A],-1.84
16,GACCAAUCUGCCCUCAGAGCUCGAGAACAUCUUCGGAUGCAGAGGAUGCAGGCUUCGGUGGCGCGAUAGCGCCAACGUCCUCAACCUCCAAUGCAUCCCACCACAUGAUGAUGCCUGAAGAGCCUUGGUUUUUUA [G47U G135A],-2.09
17,GUCCAAUCUGCCCUCAGAGCUCGAGAACAUCUUCGGCUGCAGAGGAGGCAGGCUUCGGUGGCGCGAUAGCGCCAACGUCCUCAACCUCCAAUGCAUCCCACCACAUGAUGAUGCCUGAAGAGCCUUGGUUUUUUG [A2U A37C],-3.02
18,GACCAAUCUGCCCUCAGAGCUCGAGAACAUCUUCGGAUGCAGAGGAGGCAGGCUUCGGUGGCGCGAUAGCGCCAACGUCCUCAACCUCCAAUGCAUUCCACCACAUGAUGACGCCUGAAGCGCCUUGGUUUUUUG [C97U U112C A121C],1.3
19,GACCAAUCUGGCCUCAGAGCUCGAGAACAUCUUCGGAUGCAGAGGAGGCAGGCUUCGGUGGCGCGAUAGCGCUAACGUCCUCAACCUCCAAUGCAUCCCACCACAUGAUGAUGCCUGAAGAGCCUUGGUUUUUUG [C11G C73U],0.123
20,GACCAAUCUGCUCUCAGAGCUCGAGAACAUCUUCGGAUGCACAGGAGGCAGGAUUCGGUGGCGCGAUAGCUCCAACGUCCUCAACCUGCAAUGCAUCCCACCACAUGAUGAUGCCUGAAGAGCCUUGAUUUUUUU [C12U G42C C53A G71U C88G G128A G135U],-6.24
21,GACCAAUCUGCCCUCAGAGCUCGAGAACAUCUUCGGAUGCAGAGGAGGCAGGCUUCGGUGGCGCGAUAGCGCCAACAUCCUCUCCAUCCAAUGCAUCCCAUCACAUGAUGAUGCCUCAAGAGCCUUGGUUUUUUG [G77A A83U A84C C86A C101U G117C],-6.46
